This test concerns the target small laccase from Streptomyces coelicolor (SLAC), T1 copper-depleted mutant C288S (SLAC-T1D) (Streptomyces coelicolor) (UniProt Q9XAL8). Kind of test: SEC-MALS. (In general: In gel filtration, larger molecules generally elute earlier.)

Broadly, the stoichiometry N is the number of molecules, sites or subunits per partner or assembly. As for “small laccase from Streptomyces coelicolor (SLAC), T1 copper-depleted mutant C288S (SLAC-T1D) (from UniProt Q9XAL8 1-343) (enzyme)”, the stoichiometry N amounted to 3.
